Source: patent publication US20050153894A1, “p21 peptides” (Cyclacel Limited, priority 1999, published 2005)
Square brackets hold non-standard residues; d marks the D form. Ends that are not written are not given here. Phg = N[C@H](C(=O)O)c1ccccc1; Tle = CC(C)(C)[C@H](N)C(=O)O; Nle = CCCC[C@H](N)C(=O)O; Nva = CCC[C@H](N)C(=O)O

Columns and labels:
Cyclin D1 = target: T1, Cyclin D1 (Homo sapiens, UniProt P24385); assay: Competitive Cyclin D1 binding assay (ELISA), immobilised biotinylated p21 (149-159); conditions: immobilised p21 (149-159) peptide
T1 construct: made in house
T1 sequence (P24385 whole entry): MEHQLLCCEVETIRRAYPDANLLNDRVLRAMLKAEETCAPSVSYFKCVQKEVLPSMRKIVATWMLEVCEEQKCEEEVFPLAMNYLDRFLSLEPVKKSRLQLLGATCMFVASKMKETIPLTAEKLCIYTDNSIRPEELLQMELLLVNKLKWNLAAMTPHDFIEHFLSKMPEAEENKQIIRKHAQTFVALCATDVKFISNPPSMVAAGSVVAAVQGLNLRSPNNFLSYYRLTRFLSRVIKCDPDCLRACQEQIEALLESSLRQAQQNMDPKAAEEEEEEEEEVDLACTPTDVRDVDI
Excerpt: The amount of bound Cyclin D1/Cyclin A was immunodetected and quantified by Turbo-ELISA reagent (PIERCE).
The next important question was if these peptides share the same kinase inhibitory mechanism (bind to the same Cyclin docking site).

CDK2/cyclin A = CDK2/cyclin A (Homo sapiens, UniProt P20248); assay: CDK2/cyclin A kinase assay, substrate pRb(773-928); type: biochemical; conditions: relative to H-His-Ala-Lys-Arg-Arg-Leu-Ile-Phe-NH2 (=1), pRb substrate, [ATP] = 100 μM
Excerpt: Reactions were stopped on ice, followed by filtration through p81 filterplates (Whatman Polyfiltronics, Kent, UK).

Cyclin A = Cyclin A (Homo sapiens, UniProt P20248); assay: Cyclin A binding assay, immobilised biotinyl-Ahx-[…]NH2; conditions: relative to H-His-Ala-Lys-Arg-Arg-Leu-Ile-Phe-NH2 (=1)
Chain of Cyclin A (P20248 whole entry): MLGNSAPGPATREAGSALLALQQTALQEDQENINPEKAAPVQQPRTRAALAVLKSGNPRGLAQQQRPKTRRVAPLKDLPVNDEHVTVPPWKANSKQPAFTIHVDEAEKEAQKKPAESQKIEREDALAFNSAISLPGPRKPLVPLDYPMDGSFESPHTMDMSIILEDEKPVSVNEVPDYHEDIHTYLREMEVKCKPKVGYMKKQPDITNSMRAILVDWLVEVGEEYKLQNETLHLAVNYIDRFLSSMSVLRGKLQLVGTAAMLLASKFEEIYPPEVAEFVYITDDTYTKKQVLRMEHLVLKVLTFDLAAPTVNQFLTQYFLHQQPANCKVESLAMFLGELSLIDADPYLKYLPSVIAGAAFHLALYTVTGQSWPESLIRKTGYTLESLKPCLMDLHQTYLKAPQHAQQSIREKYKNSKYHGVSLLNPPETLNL
Method: This was added to each well (100 μL). The plate was incubated for 1 h at room temperature with constant shaking. The plate was washed once quickly with TBS/BSA buffer (200 μL), followed by three more washes with TBS/BSA buffer (200 μL) for 5 min each. Serial dilutions of test peptides were prepared in a new plate (50 μL in each well). Cyclin A was diluted to 5 μg/50 μL with TBS/BSA buffer and this was then added to each well (50 μL). The solutions were mixed thoroughly with a pipette (5-6 times), before being incubated for 30 min at room temperature. This reaction mixture was then transferred to the biotinylated peptide: streptavidin-coated plate and incubated for 1 h at room temperature with constant shaking. The plate was washed once quickly with TBS/BSA buffer (200 μL), followed by three more washes with TBS/BSA buffer (200 μL) for 5 min each. The cyclin A antibody (Santa Cruz polyclonal) solution was diluted 1:200 with TBS/BSA buffer and this was then added to each well of the plate (100 μL. The plate was incubated for 1 h at room temperature with constant shaking. The plate was washed once quickly with TBS/BSA buffer (200 μl), followed by three more washes with TBS/BSA buffer (200 μL) for 5 min each. The anti-rabbit secondary antibody (goat anti-rabbit IgG peroxidase conjugate) was diluted 1:10,000 with TBS/BSA and this was then added to each well of the plate (100 μL). The plate was incubated for 1 h at room temperature with constant shaking. The plate was washed once quickly with TBS/BSA buffer (200 μL), followed by three more washes with TBS/BSA buffer (200 μL) for 5 min each. To each well was added the TMB-ELISA reagent (Pierce 1-Step™ Turbo TMB-ELISA; 100 μL) and the plate incubated for 1 min with constant shaking. The reaction was then quenched by the addition of 2 M aqueous H2SO4 (100 μL, each well). The UV absorbance of the each solution was measured spectrophotometrically at 450 nm. IC50 values were calculated from dose-response curves.

CC(C)C[C@H](NC(=O)[C@H](CCCNC(=N)N)NC(=O)[C@H](CCCNC(=N)N)NC(=O)[C@H](CCCCN)NC(=O)[C@H](CO)NC(=O)[C@@H](N)Cc1c[nH]cn1)C(=O)N[C@@H](Cc1ccccc1)C(=O)NCC(N)=O
IC50 (Cyclin D1): > 200 µM

CC[C@H](NC(=O)[C@H](C)NC(=O)[C@@H](N)CO)C(=O)N[C@@H](CCCNC(=N)N)C(=O)N[C@@H](CC(N)=O)C(=O)N[C@@H](CC(C)C)C(=O)N[C@@H](Cc1ccccc1)C(=O)NCC(N)=O [SEQ ID NO. 41, H-Ser-Ala-Abu-Arg-Asn-Leu-Phe-Gly-NH2]
IC50 (Cyclin D1): > 200 µM

H-HAKRRLIF-NH2
IC50 (Cyclin D1): 13 µM

H-His-Ala-Lys-Arg-Arg-Nva-Ile Phe-NH2 (H-HAKRR[Nva]IF-NH2; SMILES CCC[C@H](NC(=O)[C@H](CCCNC(=N)N)NC(=O)[C@H](CCCNC(=N)N)NC(=O)[C@H](CCCCN)NC(=O)[C@H](C)NC(=O)[C@@H](N)Cc1c[nH]cn1)C(=O)N[C@H](C(=O)N[C@@H](Cc1ccccc1)C(N)=O)[C@@H](C)CC)
Relative activity Kinase Inhibition (CDK2/cyclin A; Leu157 substitutions): <0.1
Relative activity Cyclin A Binding (Cyclin A; Leu157 substitutions): <0.1

H-His-Ala-Lys-Arg-Arg-Phe-Ile Phe-NH2 (H-HAKRRFIF-NH2)
Relative activity Kinase Inhibition (CDK2/cyclin A; Leu157 substitutions): <0.1
Relative activity Cyclin A Binding (Cyclin A; Leu157 substitutions): <0.1

H-His-Ala-Lys-Arg-Arg-Val-Ile Phe-NH2 (H-HAKRRVIF-NH2)
Relative activity Kinase Inhibition (CDK2/cyclin A; Leu157 substitutions): <0.1
Relative activity Cyclin A Binding (Cyclin A; Leu157 substitutions): <0.1

H-His-Ala-Lys-Arg-Asn-Leu-Ile Phe-NH2 (H-HAKRNLIF-NH2)
Relative activity Kinase Inhibition (CDK2/cyclin A; Arg156 substitutions): <0.1
Relative activity Cyclin A Binding (Cyclin A; Arg156 substitutions): <0.1

H-His-Ala-Lys-Arg-Ser-Leu-Ile Phe-NH2 (H-HAKRSLIF-NH2)
Relative activity Kinase Inhibition (CDK2/cyclin A; Arg156 substitutions): 0.7
Relative activity Cyclin A Binding (Cyclin A; Arg156 substitutions): 0.2

H-His-Ala-Lys-Gln-Arg-Leu-Ile Phe-NH2 (H-HAKQRLIF-NH2)
Relative activity Kinase Inhibition (CDK2/cyclin A; Arg155 substitutions): <0.1
Relative activity Cyclin A Binding (Cyclin A; Arg155 substitutions): <0.1

H-His-Ala-Lys-Lys-Arg-Leu-Ile Phe-NH2 (H-HAKKRLIF-NH2)
Relative activity Kinase Inhibition (CDK2/cyclin A; Arg155 substitutions): 0.8
Relative activity Cyclin A Binding (Cyclin A; Arg155 substitutions): 0.1

H-His-Ala-Lys-Nle-Arg-Leu-Ile Phe-NH2 (H-HAKHRLIF-NH2; not fully specified (residue 4); printed as H-His-Ala-Lys-Nle-Arg-Leu-Ile Phe-NH2)
Relative activity Kinase Inhibition (CDK2/cyclin A; Arg155 substitutions): <0.1
Relative activity Cyclin A Binding (Cyclin A; Arg155 substitutions): <0.1

H-His-Ala-Nle-Arg-Arg-Leu-Ile Phe-NH2 (H-HA[Nle]RRLIF-NH2; SMILES CCCC[C@H](NC(=O)[C@H](C)NC(=O)[C@@H](N)Cc1c[nH]cn1)C(=O)N[C@@H](CCCNC(=N)N)C(=O)N[C@@H](CCCNC(=N)N)C(=O)N[C@@H](CC(C)C)C(=O)N[C@H](C(=O)N[C@@H](Cc1ccccc1)C(N)=O)[C@@H](C)CC)
Relative activity Kinase Inhibition (CDK2/cyclin A; Lys154 substitutions): 03
Relative activity Cyclin A Binding (Cyclin A; Lys154 substitutions): 0.2

H-His-Bug-Lys-Arg-Arg-Leu-Ile Phe-NH2 (H-H[Tle]KRRLIF-NH2; SMILES CC[C@H](C)[C@H](NC(=O)[C@H](CC(C)C)NC(=O)[C@H](CCCNC(=N)N)NC(=O)[C@H](CCCNC(=N)N)NC(=O)[C@H](CCCCN)NC(=O)[C@@H](NC(=O)[C@@H](N)Cc1c[nH]cn1)C(C)(C)C)C(=O)N[C@@H](Cc1ccccc1)C(N)=O)
Relative activity Kinase Inhibition (CDK2/cyclin A; Ala153 substitutions): 0.2
Relative activity Cyclin A Binding (Cyclin A; Ala153 substitutions): 1.2

H-His-Gly-Lys-Arg-Arg-Leu-Ile Phe-NH2 (H-HGKRRLIF-NH2)
Relative activity Kinase Inhibition (CDK2/cyclin A; Ala153 substitutions): 0.1
Relative activity Cyclin A Binding (Cyclin A; Ala153 substitutions): 0.1

H-His-Ile-Lys-Arg-Arg-Leu-Ile Phe-NH2 (H-HIKRRLIF-NH2)
Relative activity Kinase Inhibition (CDK2/cyclin A; Ala153 substitutions): 0.5
Relative activity Cyclin A Binding (Cyclin A; Ala153 substitutions): 0.2

H-His-Nva-Lys-Arg-Arg.Leu-Ile Phe.NH2 (H-H[Nva]KRRLIF-NH2; SMILES CCC[C@H](NC(=O)[C@@H](N)Cc1c[nH]cn1)C(=O)N[C@@H](CCCCN)C(=O)N[C@@H](CCCNC(=N)N)C(=O)N[C@@H](CCCNC(=N)N)C(=O)N[C@@H](CC(C)C)C(=O)N[C@H](C(=O)N[C@@H](Cc1ccccc1)C(N)=O)[C@@H](C)CC)
Relative activity Kinase Inhibition (CDK2/cyclin A; Ala153 substitutions): <0.1
Relative activity Cyclin A Binding (Cyclin A; Ala153 substitutions): <0.1

H-His-Phe-Lys-Arg-Arg-Leu-Ile Phe-NH2 (H-HFKRRLIF-NH2)
Relative activity Kinase Inhibition (CDK2/cyclin A; Ala153 substitutions): 0.5
Relative activity Cyclin A Binding (Cyclin A; Ala153 substitutions): 0.2

H-His-Phg-Lys-Arg-Arg-Leu-Ile Phe-NH2 (H-H[Phg]KRRLIF-NH2; not fully specified; printed as H-His-Phg-Lys-Arg-Arg-Leu-Ile Phe-NH2)
Relative activity Kinase Inhibition (CDK2/cyclin A; Ala153 substitutions): <0.1
Relative activity Cyclin A Binding (Cyclin A; Ala153 substitutions): <0.1

H-His-Val-Lys-Arg-Arg-Leu-Ile Phe-NH2 (H-HVKRRLIF-NH2)
Relative activity Kinase Inhibition (CDK2/cyclin A; Ala153 substitutions): 2
Relative activity Cyclin A Binding (Cyclin A; Ala153 substitutions): 1.7

H-Hse-Ala-Lys-Arg-Arg-Leu-Ile Phe-NH2 (XAKRRLIF; N-terminal Hse, C-terminal amide)
Relative activity Kinase Inhibition (CDK2/cyclin A; His152 substitutions): 2
Relative activity Cyclin A Binding (Cyclin A; His152 substitutions): 2

H-Phe-Ala-Lys-Arg-Arg-Leu.Ile Phe-NH2 (H-FAKRRLIF-NH2)
Relative activity Kinase Inhibition (CDK2/cyclin A; His152 substitutions): 3
Relative activity Cyclin A Binding (Cyclin A; His152 substitutions): 1

H-Pya-Ala-Lys-Arg-Arg-Leu-Ile Phe-NH2 (XAKRRLIF; N-terminal Pya, C-terminal amide)
Relative activity Kinase Inhibition (CDK2/cyclin A; His152 substitutions): <0.1
Relative activity Cyclin A Binding (Cyclin A; His152 substitutions): 0.2

H-Thi-Ala-Lys-Arg-Arg-Leu-Ile Phe-NH2 (XAKRRLIF; N-terminal Thi, C-terminal amide)
Relative activity Kinase Inhibition (CDK2/cyclin A; His152 substitutions): 2
Relative activity Cyclin A Binding (Cyclin A; His152 substitutions): 0.2

HAKRRLAF-NH2
Relative activity Kinase Inhibition (CDK2/cyclin A; Ile158 substitutions): 0.3
Relative activity Cyclin A Binding (Cyclin A; Ile158 substitutions): 0.8

HAKRRLF-NH2 [H-His-Ala-Lys-Arg-Arg-Leu-Phe-NH2]
Relative activity Kinase Inhibition (CDK2/cyclin A; Ile158 substitutions): <0.1
Relative activity Cyclin A Binding (Cyclin A; Ile158 substitutions): <0.1

HAKRRLFF-NH2
Relative activity Kinase Inhibition (CDK2/cyclin A; Ile158 substitutions): 0.4
Relative activity Cyclin A Binding (Cyclin A; Ile158 substitutions): 0.4

HAKRRLIK-NH2
Relative activity Kinase Inhibition (CDK2/cyclin A; Phe159 substitutions): <0.1
Relative activity Cyclin A Binding (Cyclin A; Phe159 substitutions): <0.1

HAKRRLIL-NH2
Relative activity Kinase Inhibition (CDK2/cyclin A; Phe159 substitutions): 0.3
Relative activity Cyclin A Binding (Cyclin A; Phe159 substitutions): <0.1

HAKRRLIW-NH2
Relative activity Kinase Inhibition (CDK2/cyclin A; Phe159 substitutions): 0.3
Relative activity Cyclin A Binding (Cyclin A; Phe159 substitutions): 0.1

HAKRRLIY-NH2
Relative activity Kinase Inhibition (CDK2/cyclin A; Phe159 substitutions): 0.3
Relative activity Cyclin A Binding (Cyclin A; Phe159 substitutions): 0.2

HAKRRLLF-NH2
Relative activity Kinase Inhibition (CDK2/cyclin A; Ile158 substitutions): 1.2
Relative activity Cyclin A Binding (Cyclin A; Ile158 substitutions): 0.6
